# Laboratory results from IntAct's records for PubMed 29039417.
# B1: BBSome complex member BBS2 (Homo sapiens), Q9BXC9 (parent)
# chain: MLLPVFTLKLRHKISPRMVAIGRYDGTHPCLAAATQTGKVFIHNPHTRNQHVSASRVFQSPLESDVSLLSINQAVSCLTAGVLNPELGYDALLVGTQTNLLAYDVYNNSDLFYREVADGANAIVLGTLGDISSPLAIIGGNCALQGFNHEGSDLFWTVTGDNVNSLALCDFDGDGKKELLVGSEDFDIRVFKEDEIVAEMTETEIVTSLCPMYGSRFGYALSNGTVGVYDKTSRYWRIKSKNHAMSIHAFDLNSDGVNELITGWSNGKVDARSDRTGEVIFKDNFSSAIAGVVEGDYRMDGHIQLICCSVDGEIRGYLPGTAEMRGNLMDTSAEQDLIRELSQKKQNLLLELRNYEENAKAELASPLNEADGHRGIIPANTRLHTTLSVSLGNETQTAHTELRISTSNDTIIRAVLIFAEGIFTGESHVVHPSIHNLSSSICIPIVPPKDVPVDLHLKAFVGYRSSTQFHVFESTRQLPRFSMYALTSLDPASEPISYVNFTIAERAQRVVVWLGQNFLLPEDTHIQNAPFQVCFTSLRNGGHLHIKIKLSGEITINTDDIDLAGDIIQSMASFFAIEDLQVEADFPVYFEELRKVLVKVDEYHSVHQKLSADMADHSNLIRSLLVGAEDARLMRDMKTMKSRYMELYDLNRDLLNGYKIRCNNHTELLGNLKAVNQAIQRAGRLRVGKPKNQVITACRDAIRSNNINTLFKIMRVGTASS
# partner: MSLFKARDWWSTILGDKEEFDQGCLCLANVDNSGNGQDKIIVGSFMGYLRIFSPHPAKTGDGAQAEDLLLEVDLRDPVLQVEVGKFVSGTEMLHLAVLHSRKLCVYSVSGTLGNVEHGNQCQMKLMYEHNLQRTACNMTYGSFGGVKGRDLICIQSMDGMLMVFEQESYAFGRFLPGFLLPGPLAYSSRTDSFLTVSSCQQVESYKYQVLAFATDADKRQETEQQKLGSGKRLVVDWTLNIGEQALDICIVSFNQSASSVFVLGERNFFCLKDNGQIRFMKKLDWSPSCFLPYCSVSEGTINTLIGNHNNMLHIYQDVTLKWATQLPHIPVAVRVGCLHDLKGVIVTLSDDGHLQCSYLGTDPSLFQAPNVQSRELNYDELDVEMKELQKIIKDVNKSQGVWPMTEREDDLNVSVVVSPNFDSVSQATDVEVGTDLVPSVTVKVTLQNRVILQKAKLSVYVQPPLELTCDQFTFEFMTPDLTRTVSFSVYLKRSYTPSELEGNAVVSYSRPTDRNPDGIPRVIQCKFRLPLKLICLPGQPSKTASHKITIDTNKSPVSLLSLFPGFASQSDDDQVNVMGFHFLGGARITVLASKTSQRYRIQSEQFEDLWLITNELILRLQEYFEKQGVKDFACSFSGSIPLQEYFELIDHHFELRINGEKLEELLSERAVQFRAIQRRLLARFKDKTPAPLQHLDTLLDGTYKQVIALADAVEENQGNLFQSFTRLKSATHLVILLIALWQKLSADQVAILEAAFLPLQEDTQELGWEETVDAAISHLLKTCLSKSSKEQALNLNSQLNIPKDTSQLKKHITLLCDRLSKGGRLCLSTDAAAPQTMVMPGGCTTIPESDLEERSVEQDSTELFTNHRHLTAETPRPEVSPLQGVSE
# Variants of: B1
# Conditions: with pthb1_human BBS9, Q3SYG4
row,Variant,effect of a mutation on the interaction
1,I577A,with no effect
2,I577K,with no effect
3,G462E,with no effect
4,G462A,with no effect
5,A507E,with no effect
6,V600E,with no effect
7,L520E,with no effect
8,N705A,with no effect
9,L668K,with no effect
10,G326E,with no effect
11,G326A,with no effect
12,N557A,with no effect
13,N708E,with no effect
14,S465A,with no effect
15,Q581A,with no effect
16,R643A,with no effect
17,R643K,with no effect
18,S605A,with no effect
19,V626K,with no effect
20,V626A,with no effect
21,D630A,with no effect
22,R509K,with no effect
23,L478A,disrupting interaction strength
24,S438A,with no effect
25,L489K,with no effect
26,P587K,with no effect

row,Variant,effect of a mutation on the interaction
1,D700K,with no effect
2,D700A,with no effect
3,R480A,with no effect
4,M614A,with no effect
5,M614E,with no effect
6,T410A,with no effect
7,Q396K,with no effect
8,H607K,with no effect
9,H607A,with no effect
10,F590A,with no effect
11,T555P,disrupting interaction strength
12,L610A,with no effect
13,L544S,disrupting interaction strength
14,D613K,with no effect
15,D613A,with no effect
16,Q532E,with no effect
17,N517L,disrupting interaction strength
18,R325A,with no effect
19,H435A,with no effect
20,H435K,with no effect
21,H435E,with no effect
22,S407K,with no effect
23,S407A,with no effect
24,Y658E,with no effect
25,I695K,with no effect
26,Y463A,with no effect

row,Variant,effect of a mutation on the interaction
1,Y463K,with no effect
2,A398K,with no effect
3,H665K,with no effect
4,I496E,with no effect
5,L402K,disrupting interaction strength
6,L402A,with no effect
7,A674E,with no effect
8,L391A,with no effect
9,A576E,with no effect
10,K641E,with no effect
11,E602A,with no effect
12,E602K,with no effect
13,P432L,disrupting interaction strength
14,F574A,with no effect
15,F574E,with no effect
16,F574K,with no effect
17,S488K,with no effect
18,S488R,disrupting interaction strength
19,M483I,disrupting interaction strength
20,K345E,with no effect
21,M714A,with no effect
22,P491E,with no effect
23,I412R,disrupting interaction strength
24,S365C,disrupting interaction strength
25,L710E,with no effect
26,L710A,with no effect

row,Variant,effect of a mutation on the interaction
1,I338K,with no effect
2,S390G,disrupting interaction strength
3,F586K,with no effect
4,I554E,with no effect
5,L650E,with no effect
6,G515K,with no effect
7,G515C,disrupting interaction strength
8,A492E,with no effect
9,T696K,with no effect
10,D585A,with no effect
11,K712E,with no effect
12,I376V,disrupting interaction strength
13,R684K,with no effect
14,R684A,with no effect
15,L625E,with no effect
16,I404A,with no effect
17,P447E,with no effect
18,V588A,with no effect
19,C662E,with no effect
20,V694E,with no effect
21,F535K,disrupting interaction strength
22,N528A,with no effect
23,T536E,with no effect
24,Q335K,with no effect
25,H543E,with no effect
26,D371V,disrupting interaction strength

row,Variant,effect of a mutation on the interaction
1,S474A,disrupting interaction strength
2,F423A,with no effect
3,F423K,with no effect
4,N368E,with no effect
5,V687A,with no effect
6,S720E,with no effect
7,Q343K,with no effect
8,Q343E,with no effect
9,L624K,with no effect
10,D601K,with no effect
11,H456A,with no effect
12,H456K,with no effect
13,H456E,with no effect
14,S440E,with no effect
15,T397E,with no effect
16,N664E,with no effect
17,P530E,with no effect
18,L597E,with no effect
19,D649A,with no effect
20,V582E,with no effect
21,S497K,with no effect
22,L337A,with no effect
23,Q346A,with no effect
24,I417E,with no effect
25,R686E,with no effect
26,D560E,with no effect

row,Variant,effect of a mutation on the interaction
1,L437K,disrupting interaction strength
2,H545E,with no effect
3,H545K,with no effect
4,H545A,with no effect
5,N380A,disrupting interaction strength
6,P444E,with no effect
7,A379E,with no effect
8,L685K,with no effect
9,F711A,with no effect
10,F711K,with no effect
11,I713K,with no effect
12,E667A,with no effect
13,H428E,with no effect
14,G421A,with no effect
15,L647K,with no effect
16,T331E,with no effect
17,H431E,with no effect
18,H431A,with no effect
19,A701E,with no effect
20,R464K,with no effect
21,R464E,with no effect
22,P378A,with no effect
23,P378K,with no effect
24,Y355E,with no effect
25,V499E,with no effect
26,S623A,with no effect

row,Variant,effect of a mutation on the interaction
1,L655K,with no effect
2,K449A,with no effect
3,R339E,with no effect
4,T467E,with no effect
5,N327K,with no effect
6,V389S,disrupting interaction strength
7,T502A,with no effect
8,H399K,with no effect
9,F518L,disrupting interaction strength
10,F518K,disrupting interaction strength
11,Y589K,with no effect
12,F575K,with no effect
13,G541E,with no effect
14,G372K,with no effect
15,N676E,with no effect
16,M329K,with no effect
17,L519K,with no effect
18,I546K,with no effect
19,E522A,with no effect
20,E426A,with no effect
21,N436K,with no effect
